Experimental data taken from paper PMC6447562, “Structures of the wild-type MexAB–OprM tripartite pump reveal its complex formation and drug efflux mechanism” (Nature Communications, 2019).
Residue numbers refer to the chain shown, from its start.

B1: MexA (a.a. 2-360) (natural protein)
chain: GKSEAPPPAQTPEVGIVTLEAQTVTLNTELPGRTNAFRIAEVRPQVNGIILKRLFKEGSDVKAGQQLYQIDPATYEADYQSAQANLASTQEQAQRYKLLVADQAVSKQQYADANAAYLQSKAAVEQARINLRYTKVLSPISGRIGRSAVTEGALVTNGQANAMATVQQLDPIYVDVTQPSTALLRLRRELASGQLERAGDNAAKVSLKLEDGSQYPLEGRLEFSEVSVDEGTGSVTIRAVFPNPNNELLPGMFVHAQLQEGVKQKAILAPQQGVTRDLKGQATALVVNAQNKVELRVIKADRVIGDKWLVTEGLNAGDKIITEGLQFVQPGVEVKTVPAKNVASAQKADAAPAKTDSKG
notes: MexA (membrane fusion protein), Pseudomonas aeruginosa, a.a; 2-360, lacks the signal peptide and the first cysteine; numbers count on: the mature protein; Six copies (a hexamer) stand in the assembled MexAB-OprM pump; also called MFP; membrane fusion protein; source: E. coli BL21-RILP(DE3), purified (Ni-NTA, TEV cleavage, Superdex200); not shown: His6, N-terminal, cleaved
B2: MexA R96A (natural protein, Pseudomonas aeruginosa, UniProt P52477 25-383, looked up)
chain: B1 chain with R95A
notes: MexA, Pseudomonas aeruginosa, a.a; 2-360 as m1; numbers count on: the mature protein; source: E. coli, expressed and purified as the wild type; not shown: His6, N-terminal, cleaved
B3: MexA L99D (natural protein, Pseudomonas aeruginosa, UniProt P52477 25-383, looked up)
chain: B1 chain with L98D
notes: as for B2
B4: MexA R96D (natural protein, Pseudomonas aeruginosa, UniProt P52477 25-383, looked up)
chain: B1 chain with R95D
notes: as for B2
B5: MexB, full length (natural protein)
chain: MSKFFIDRPIFAWVIALVIMLAGGLSILSLPVNQYPAIAPPAIAVQVSYPGASAETVQDTVVQVIEQQMNGIDNLRYISSESNSDGSMTITVTFEQGTDPDIAQVQVQNKLQLATPLLPQEVQRQGIRVTKAVKNFLMVVGVVSTDGSMTKEDLSNYIVSNIQDPLSRTKGVGDFQVFGSQYSMRIWLDPAKLNSYQLTPGDVSSAIQAQNVQISSGQLGGLPAVKGQQLNATIIGKTRLQTAEQFENILLKVNPDGSQVRLKDVADVGLGGQDYSINAQFNGSPASGIAIKLATGANALDTAKAIRQTIANLEPFMPQGMKVVYPYDTTPVVSASIHEVVKTLGEAILLVFLVMYLFLQNFRATLIPTIAVPVVLLGTFGVLAAFGFSINTLTMFGMVLAIGLLVDDAIVVVENVERVMAEEGLSPREAARKSMGQIQGALVGIAMVLSAVFLPMAFFGGSTGVIYRQFSITIVSAMALSVIVALILTPALCATMLKPIEKGDHGEHKGGFFGWFNRMFLSTTHGYERGVASILKHRAPYLLIYVVIVAGMIWMFTRIPTAFLPDEDQGVLFAQVQTPPGSSAERTQVVVDSMREYLLEKESSSVSSVFTVTGFNFAGRGQSSGMAFIMLKPWEERPGGENSVFELAKRAQMHFFSFKDAMVFAFAPPSVLELGNATGFDLFLQDQAGVGHEVLLQARNKFLMLAAQNPALQRVRPNGMSDEPQYKLEIDDEKASALGVSLADINSTVSIAWGSSYVNDFIDRGRVKRVYLQGRPDARMNPDDLSKWYVRNDKGEMVPFNAFATGKWEYGSPKLERYNGVPAMEILGEPAPGLSSGDAMAAVEEIVKQLPKGVGYSWTGLSYEERLSGSQAPALYALSLLVVFLCLAALYESWSIPFSVMLVVPLGVIGALLATSMRGLSNDVFFQVGLLTTIGLSAKNAILIVEFAKELHEQGKGIVEAAIEACRMRLRPIVMTSLAFILGVVPLAISTGAGSGSQHAIGTGVIGGMVTATVLAIFWVPLFYVAVSTLFKDEASKQQASVEKGQ
notes: MexB (RND transporter), Pseudomonas aeruginosa, full length; also called RND transporter; source: E. coli C43(DE3), membranes solubilised with DDM, purified (Ni-chelating Sepharose, Superdex200, CYMAL-7)
B6: OprM, full length (natural protein)
chain: CSLIPDYQRPEAPVAAAYPQGQAYGQNTGAAAVPAADIGWREFFRDPQLQQLIGVALENNRDLRVAALNVEAFRAQYRIQRADLFPRIGVDGSGTRQRLPGDLSTTGSPAISSQYGVTLGTTAWELDLFGRLRSLRDQALEQYLATEQAQRSAQTTLVASVATAYLTLKADQAQLQLTKDTLGTYQKSFDLTQRSYDVGVASALDLRQAQTAVEGARATLAQYTRLVAQDQNALVLLLGSGIPANLPQGLGLDQTLLTEVPAGLPSDLLQRRPDILEAEHQLMAANASIGAARAAFFPSISLTANAGTMSRQLSGLFDAGSGSWLFQPSINLPIFTAGSLRASLDYAKIQKDINVAQYEKAIQTAFQEVADGLAARGTFTEQLQAQRDLVKASDEYYQLADKRYRTGVDNYLTLLDAQRSLFTAQQQLITDRLNQLTSEVNLYKALGGGWNQQTVTQQQTAKKEDPQA
notes: OprM (outer membrane factor), Pseudomonas aeruginosa, gene encoding full-length OprM; The full-length gene was expressed; also called OMF; outer membrane factor; source: E. coli C43(DE3), outer membranes solubilised with OG, purified (Ni-NTA, Superdex200, CYMAL-7)

Legend:
OprM, full length [1] = target: B6; assay: cryo-EM structure; MexA, MexB and OprM reconstituted in vitro, detergent replaced with amphipol A8-35, 50 mM HEPES-K pH 7.5; single-particle analysis; 0° and 60° states; without drug and with 10 mM novobiocin; settings: both partners purified
[2] = target: the molecule itself; assay: as above
OprM, full length [3] = target: B6; assay: SEC; complex-formation experiment: MexA, MexB and OprM (wild type, or one of them mutated) mixed at 3:1:1 in buffer C, dialysed against buffer D (20 mM Na-citrate, 300 mM KCl, 0.02% CYMAL-7) at 4 °C, Superdex200 16/60, 0.5 mL/min; the read-out is the formation of the tripartite complex; settings: both partners purified
MexB, full length = target: B5; assay: as above; settings: both partners purified

B1
stoichiometry N (OprM, full length [1]): 2 MexA per OprM
stoichiometry N [2]: 6

B2
binding result (OprM, full length [3]): binds
binding result (MexB, full length): binds

B3
binding result (OprM, full length [3]): binds
binding result (MexB, full length): binds

B4
binding result (OprM, full length [3]): binds

B5
stoichiometry N [2]: 3

B6
stoichiometry N [2]: 3
